From patent US8911422B2, “Micro-needle device” (Hisamitsu Pharmaceutical Co., Inc., priority 2010, dated 2014) come the findings set out here.

The data set relates to rats. As to the kind of experiment: in vivo injection with micro-needle device (Example 2), availability. Details: species or system rat. Particulars: coating range 200 μm. On the procedure:
A micro-needle device similar to that of Example 1 was used to perform in vivo injection (rats) to determine availability. Here, 14C-OVA was coated on each of the micro-needles, and a coating range thereof was 200 μm in height including the top of the micro-needle concerned (that is, the range H=200 μm in FIG. 3 (c)). The 14C-OVA coated on the micro-needle device was about 100 μg in total, and pullulan, that is, a coating carrier, was about 100 μg in total.
On injection, used was a spring impact-type applicator capable of giving an impact due to the elastic energy of 0.4 J/cm^2 to the back face of the micro-needle device. The elastic energy of the spring impact-type applicator is determined by the above-described formula (I). A spring constant for yielding the elastic energy of 0.4 J/cm^2 was 0.569 N/mm. In order to determine the availability, a Geiger-Muller (GM) counter tube was used to count radiant rays, and the measurement result was applied to a previously prepared calibration curve to determine an initially coated quantity and a quantity remaining on the micro-needle device peeled after puncture. Then, the remaining quantity was divided by the initially coated quantity to determine the availability.

B1: 14C-OVA (protein, UniProt P01012 2-386, looked up)
Ovalbumin: GSIGAASMEFCFDVFKELKVHHANENIFYCPIAIMSALAMVYLGAKDSTRTQINKVVRFDKLPGFGDSIEAQCGTSVNVHSSLRDILNQITKPNDVYSFSLASRLYAEERYPILPEYLQCVKELYRGGLEPINFQTAADQARELINSWVESQTNGIIRNVLQPSSVDSQTAMVLVNAIVFKGLWEKAFKDEDTQAMPFRVTEQESKPVQMMYQIGLFRVASMASEKMKILELPFASGTMSMLVLLPDEVSGLEQLESIINFEKLTEWTSSNVMEERKIKVYLPRMKMEEKYNLTSVLMAMGITDVFSSSANLSGISSAESLKISQAVHAAHAEINEAGREVVGSAEAGVDAASVSEEFRADHPFLFCIKHIATNAVLFFGRCVSP
modifications: 14C radiolabel
notes: 14C-OVA coated on the micro-needles with pullulan as coating carrier
B1: the availability runs as follows: (impact 0.4 J/cm^2 given once) 38%; (impact 0.4 J/cm^2 once, then pushed one minute at 1 kg/patch) 42%; (impact 0.4 J/cm^2 once, then pushed one minute at 3 kg/patch) 58%.
